Assay results from the supplement of paper PMC10567573.

B1: RAB22A (parent)
chain: FVEDSFDPNINPTIGASFMTKTVQ
B2: TBC1D10A (parent)
chain: WCLVQICEKYLPGYYSEKLEAIQL

Variants of: B1
Assay: protein stability index of a GFP-peptide fusion (GPS, HEK-293T) (PSI 1-6); higher = more stable
Settings: c terminus: a fixed tail appended
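Further: lentivirally expressed fusions sorted by FACS into six bins by GFP to DsRed ratio, PSI derived from sequencing read proportions per bin multiplied by bin number.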

Protein stability index of substitutions, site by site:
T20: W 2.35, G 2.58, L 1.66, P 2.29, A 2.14, N 2.31, Y 1.86, M 2.22, K 2.23, R 2.12, S 2.06, V 2.23, Q 2.24, I 1.87, H 2.34, F 1.85, E 2.39, C 2.38, D 2.52
T22: R 2.34, V 2.2, E 2.91, L 1.78, A 2.43, C 2.35, H 2.09, W 1.23, M 2.11, N 2.25, G 2.25, I 1.6, K 2.77, F 2.02, Q 2.45, D 2.85, Y 1.73, S 2.26, P 2.75
M19: G 2.4, A 3.11, T 2.81, V 2.29, C 2.66, H 2.12, S 2.64, P 2.62, Q 2.38, E 3.36, N 2.99, K 2.1, D 3.24, L 2.22, R 2.46, F 1.73, I 2.25, W 3.23, Y 2.08
K21: A 2.03, N 2.51, F 2.38, P 2.74, M 1.94, G 2.29, V 1.89, L 2.24, C 1.56, Y 1.93, R 2.19, D 2.87, Q 2.87, E 2.67, H 2.08, I 2.18, T 2.41, S 2.11, W 2.44
V23: P 2.94, I 2.37, C 2.37, G 2.56, R 1.89, L 2.93, T 2.78, Y 2.52, S 2.66, W 2.5, A 2.43, H 2.5, M 1.98, D 2.76, K 2.26, Q 2.39, F 1.79, E 3.24, N 2.44
S17: P 2.49, W 1.96, Y 1.82, R 2.51, K 2.29, V 1.74, N 2.28, M 1.74, I 2.25, L 1.77, Q 2.6, T 2.17
Q24: R 2.38, M 1.71, K 2.15, F 1.49, G 2.22, L 2.19, D 2.56, E 2.91, I 1.55, A 2.11, H 2.1, S 2.82, C 1.89, T 2.01, Y 2.98, P 2.45, N 2.28, V 2.24
F18: S 3.29, H 3.24, I 3.32, Y 3.08, L 2.56, P 2.98, N 3.94, V 3.07, W 2.08, K 2.79, M 2.65, E 3.37, A 3.22, D 3.45, R 2.83, G 3.35, C 3.17, T 3.15, Q 3.52

Variants of: B2
Assay: as above
Settings: c terminus: a fixed tail appended

Protein stability index of substitutions, site by site:
E17: Q 1.94, H 1.77, V 3.99, C 2.56, P 2.03, L 3.48, I 2.74, K 1.66, M 3.65
I6: P 2.45, K 2.41, G 1.73, C 3.08
C7: L 3.68, R 3.73, D 2.31, K 2.9, Y 3.39, M 2.57, N 3.08, T 3.5
K9: T 3.21, P 2.17, I 3.29, C 4.4, H 2.65, F 3.33, A 1.11
I22: L 4.01, K 2.86, V 3.09, G 2.35, M 2.21, Q 2.4, T 2.67, D 3.23, S 1.72, N 1.3, E 3.23
Y15: C 2.35, F 1.24, W 2.85
P12: N 4.27, T 1.62, I 2.32, M 1.77, K 2.12, Y 2.66, W 2.32, S 3.84
A21: R 2.99, C 4.65, G 2.02, M 3.73, H 3.56, T 2.15, Q 2.37, E 3.38, P 3.77, L 4.51
W1: A 3.88, P 1.93, Q 1.07, F 2.61, V 2.6, H 2.83, T 3.45, R 2.22
S16: Y 2.7, E 4.03, D 2.24, H 1.6, P 2.1, W 3.94
K18: I 2.1, T 2, M 2.98, D 1.92, Q 1.91, H 3.99, R 2.22, C 3.08, W 3.09, V 3.17, L 1.83
V4: T 2.83, M 3.23, E 2.09, N 1.57, Q 1.48, L 2.19, I 2.23, G 2.45, H 1.59, P 1.73
L24: A 3, F 3.24, D 2.69
G13: A 3.16, E 3.01, I 1.54, M 3.53, K 2.91, C 1.5, W 2.7, Y 5.24, S 2.02
Y10: W 4.21, I 1.18, G 4.89, M 3.09, V 1.61, K 2.62, Q 2.39, P 2.35
L3: S 1.88, D 1.29, C 3.05, P 1.5, G 3.3, N 1.88, H 1.87, T 4.55, M 2.45, W 1.02
Y14: N 3.59, K 3.06, E 1.59, D 3.02, P 2.61, V 3.94
L19: C 4.85, P 1.99, E 4.16, Q 3.88, V 2.92, N 3.63
C2: R 3.28, F 1.81, G 2.79, S 1.67, N 3.07, E 1.01, P 1.86
L11: I 3.03, P 3.62, S 2.68, D 2.91, C 2.72, E 2.65
Q23: M 2.93, W 2.58, P 1.64, I 3.3, A 4.11, S 3.29, V 2.11, H 2.13, R 2.52, E 2.44, N 3.14, K 2.75, F 3.75, T 5.09
E20: H 3.07, R 1.8, T 1.47, A 2.21, K 3.35, S 2.64, D 1.79, Q 2.79, I 2.3, W 1.74
E8: Q 4.87, T 2.34, A 2.95, K 4.48, C 2.85, M 2.81, Y 3.51, L 4.41
Q5: M 2.16, L 3.52, F 2.92, G 3.13, S 2.72, K 1.71, P 2.69, V 4.85
